Eleven variants from IntAct's records for PubMed 31515488 can be followed below.

B1: Serine/threonine-protein kinase PAK 5 (Homo sapiens), Q9P286 (parent)
chain: MFGKKKKKIEISGPSNFEHRVHTGFDPQEQKFTGLPQQWHSLLADTANRPKPMVDPSCITPIQLAPMKTIVRGNKPCKETSINGLLEDFDNISVTRSNSLRKESPPTPDQGASSHGPGHAEENGFITFSQYSSESDTTADYTTEKYREKSLYGDDLDPYYRGSHAAKQNGHVMKMKHGEAYYSEVKPLKSDFARFSADYHSHLDSLSKPSEYSDLKWEYQRASSSSPLDYSFQFTPSRTAGTSGCSKESLAYSESEWGPSLDDYDRRPKSSYLNQTSPQPTMRQRSRSGSGLQEPMMPFGASAFKTHPQGHSYNSYTYPRLSEPTMCIPKVDYDRAQMVLSPPLSGSDTYPRGPAKLPQSQSKSGYSSSSHQYPSGYHKATLYHHPSLQSSSQYISTASYLSSLSLSSSTYPPPSWGSSSDQQPSRVSHEQFRAALQLVVSPGDPREYLANFIKIGEGSTGIVCIATEKHTGKQVAVKKMDLRKQQRRELLFNEVVIMRDYHHDNVVDMYSSYLVGDELWVVMEFLEGGALTDIVTHTRMNEEQIATVCLSVLRALSYLHNQGVIHRDIKSDSILLTSDGRIKLSDFGFCAQVSKEVPKRKSLVGTPYWMAPEVISRLPYGTEVDIWSLGIMVIEMIDGEPPYFNEPPLQAMRRIRDSLPPRVKDLHKVSSVLRGFLDLMLVREPSQRATAQELLGHPFLKLAGPPSCIVPLMRQYRHH
B2: Fanconi anemia group G protein (Homo sapiens), O15287 (parent)
chain: MSRQTTSVGSSCLDLWREKNDRLVRQAKVAQNSGLTLRRQQLAQDALEGLRGLLHSLQGLPAAVPVLPLELTVTCNFIILRASLAQGFTEDQAQDIQRSLERVLETQEQQGPRLEQGLRELWDSVLRASCLLPELLSALHRLVGLQAALWLSADRLGDLALLLETLNGSQSGASKDLLLLLKTWSPPAEELDAPLTLQDAQGLKDVLLTAFAYRQGLQELITGNPDKALSSLHEAASGLCPRPVLVQVYTALGSCHRKMGNPQRALLYLVAALKEGSAWGPPLLEASRLYQQLGDTTAELESLELLVEALNVPCSSKAPQFLIEVELLLPPPDLASPLHCGTQSQTKHILASRCLQTGRAGDAAEHYLDLLALLLDSSEPRFSPPPSPPGPCMPEVFLEAAVALIQAGRAQDALTLCEELLSRTSSLLPKMSRLWEDARKGTKELPYCPLWVSATHLLQGQAWVQLGAQKVAISEFSRCLELLFRATPEEKEQGAAFNCEQGCKSDAALQQLRAAALISRGLEWVASGQDTKALQDFLLSVQMCPGNRDTYFHLLQTLKRLDRRDEATALWWRLEAQTKGSHEDALWSLPLYLESYLSWIRPSDRDAFLEEFRTSLPKSCDL
partner: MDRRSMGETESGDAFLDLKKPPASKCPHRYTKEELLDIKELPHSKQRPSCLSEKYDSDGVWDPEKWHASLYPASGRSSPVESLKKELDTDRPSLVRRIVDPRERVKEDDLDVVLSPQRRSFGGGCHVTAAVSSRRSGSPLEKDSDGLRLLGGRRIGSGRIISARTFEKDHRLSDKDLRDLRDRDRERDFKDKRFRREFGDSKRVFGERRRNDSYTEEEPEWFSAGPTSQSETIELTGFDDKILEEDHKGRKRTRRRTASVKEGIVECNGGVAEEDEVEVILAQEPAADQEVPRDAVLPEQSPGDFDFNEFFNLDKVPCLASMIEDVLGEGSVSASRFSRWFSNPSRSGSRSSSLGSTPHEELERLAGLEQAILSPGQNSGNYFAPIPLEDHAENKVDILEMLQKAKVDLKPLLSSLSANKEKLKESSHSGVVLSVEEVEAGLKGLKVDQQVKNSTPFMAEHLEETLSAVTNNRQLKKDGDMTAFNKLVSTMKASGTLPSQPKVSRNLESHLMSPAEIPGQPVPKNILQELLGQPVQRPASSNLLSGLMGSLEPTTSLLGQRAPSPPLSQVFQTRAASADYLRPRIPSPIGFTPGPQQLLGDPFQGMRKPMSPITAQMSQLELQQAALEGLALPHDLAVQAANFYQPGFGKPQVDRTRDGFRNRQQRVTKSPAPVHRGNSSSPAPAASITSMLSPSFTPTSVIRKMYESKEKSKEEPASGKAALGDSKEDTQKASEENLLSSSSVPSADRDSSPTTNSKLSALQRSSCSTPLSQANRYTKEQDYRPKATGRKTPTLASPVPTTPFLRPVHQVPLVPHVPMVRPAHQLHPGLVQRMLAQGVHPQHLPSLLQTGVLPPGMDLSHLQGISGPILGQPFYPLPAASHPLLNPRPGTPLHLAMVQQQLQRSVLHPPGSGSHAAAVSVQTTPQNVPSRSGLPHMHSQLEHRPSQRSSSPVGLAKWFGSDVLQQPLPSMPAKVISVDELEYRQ
B3: Ribose-phosphate pyrophosphokinase 1 (Homo sapiens), P60891 (parent)
chain: MPNIKIFSGSSHQDLSQKIADRLGLELGKVVTKKFSNQETCVEIGESVRGEDVYIVQSGCGEINDNLMELLIMINACKIASASRVTAVIPCFPYARQDKKDKSRAPISAKLVANMLSVAGADHIITMDLHASQIQGFFDIPVDNLYAEPAVLKWIRENISEWRNCTIVSPDAGGAKRVTSIADRLNVDFALIHKERKKANEVDRMVLVGDVKDRVAILVDDMADTCGTICHAADKLLSAGATRVYAILTHGIFSGPAISRINNACFEAVVVTNTIPQEDKMKHCSKIQVIDISMILAEAIRRTHNGESVSYLFSHVPL
partner: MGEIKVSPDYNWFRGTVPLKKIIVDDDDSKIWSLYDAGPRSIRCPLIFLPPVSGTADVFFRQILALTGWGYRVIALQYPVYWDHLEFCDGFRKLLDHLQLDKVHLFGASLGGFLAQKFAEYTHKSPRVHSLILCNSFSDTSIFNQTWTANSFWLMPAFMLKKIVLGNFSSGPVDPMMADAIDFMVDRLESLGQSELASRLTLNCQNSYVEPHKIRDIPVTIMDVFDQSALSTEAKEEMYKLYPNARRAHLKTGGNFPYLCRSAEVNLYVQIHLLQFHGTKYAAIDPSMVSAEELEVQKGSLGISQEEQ
B4: Vesicle transport through interaction with t-SNAREs homolog 1B (Homo sapiens), Q9UEU0 (parent)
chain: MASSAASSEHFEKLHEIFRGLHEDLQGVPERLLGTAGTEEKKKLIRDFDEKQQEANETLAEMEEELRYAPLSFRNPMMSKLRNYRKDLAKLHREVRSTPLTATPGGRGDMKYGIYAVENEHMNRLQSQRAMLLQGTESLNRATQSIERSHRIATETDQIGSEIIEELGEQRDQLERTKSRLVNTSENLSKSRKILRSMSRKVTTNKLLLSIIILLELAILGGLVYYKFFRSH
partner: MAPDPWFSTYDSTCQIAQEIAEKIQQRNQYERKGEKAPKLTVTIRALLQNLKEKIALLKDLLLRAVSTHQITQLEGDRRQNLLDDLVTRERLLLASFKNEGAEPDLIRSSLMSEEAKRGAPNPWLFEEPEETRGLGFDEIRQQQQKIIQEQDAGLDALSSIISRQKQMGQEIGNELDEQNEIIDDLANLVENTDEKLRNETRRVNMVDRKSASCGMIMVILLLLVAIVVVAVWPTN
B5: Tripartite motif-containing protein 10 (Homo sapiens), Q9UDY6 (parent)
chain: MASAASVTSLADEVNCPICQGTLREPVTIDCGHNFCRACLTRYCEIPGPDLEESPTCPLCKEPFRPGSFRPNWQLANVVENIERLQLVSTLGLGEEDVCQEHGEKIYFFCEDDEMQLCVVCREAGEHATHTMRFLEDAAAPYREQIHKCLKCLRKEREEIQEIQSRENKRMQVLLTQVSTKRQQVISEFAHLRKFLEEQQSILLAQLESQDGDILRQRDEFDLLVAGEICRFSALIEELEEKNERPARELLTDIRSTLIRCETRKCRKPVAVSPELGQRIRDFPQQALPLQREMKMFLEKLCFELDYEPAHISLDPQTSHPKLLLSEDHQRAQFSYKWQNSPDNPQRFDRATCVLAHTGITGGRHTWVVSIDLAHGGSCTVGVVSEDVQRKGELRLRPEEGVWAVRLAWGFVSALGSFPTRLTLKEQPRQVRVSLDYEVGWVTFTNAVTREPIYTFTASFTRKVIPFFGLWGRGSSFSLSS
B6: Peroxisomal bifunctional enzyme (Homo sapiens), Q08426 (parent)
chain: MAEYTRLHNALALIRLRNPPVNAISTTLLRDIKEGLQKAVIDHTIKAIVICGAEGKFSAGADIRGFSAPRTFGLTLGHVVDEIQRNEKPVVAAIQGMAFGGGLELALGCHYRIAHAEAQVGLPEVTLGLLPGARGTQLLPRLTGVPAALDLITSGRRILADEALKLGILDKVVNSDPVEEAIRFAQRVSDQPLESRRLCNKPIQSLPNMDSIFSEALLKMRRQHPGCLAQEACVRAVQAAVQYPYEVGIKKEEELFLYLLQSGQARALQYAFFAERKANKWSTPSGASWKTASARPVSSVGVVGLGTMGRGIVISFARARIPVIAVDSDKNQLATANKMITSVLEKEASKMQQSGHPWSGPKPRLTSSVKELGGVDLVIEAVFEEMSLKKQVFAELSAVCKPEAFLCTNTSALDVDEIASSTDRPHLVIGTHFFSPAHVMKLLEVIPSQYSSPTTIATVMNLSKKIKKIGVVVGNCFGFVGNRMLNPYYNQAYFLLEEGSKPEEVDQVLEEFGFKMGPFRVSDLAGLDVGWKSRKGQGLTGPTLLPGTPARKRGNRRYCPIPDVLCELGRFGQKTGKGWYQYDKPLGRIHKPDPWLSKFLSRYRKTHHIEPRTISQDEILERCLYSLINEAFRILGEGIAASPEHIDVVYLHGYGWPRHKGGPMFYASTVGLPTVLEKLQKYYRQNPDIPQLEPSDYLKKLASQGNPPLKEWQSLAGSPSSKL
partner: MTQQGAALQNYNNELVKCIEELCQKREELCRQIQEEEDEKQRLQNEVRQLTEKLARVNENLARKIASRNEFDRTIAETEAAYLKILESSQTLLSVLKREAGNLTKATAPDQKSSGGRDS
B7: TNF receptor-associated factor 2 (Homo sapiens), Q12933 (parent)
chain: MAAASVTPPGSLELLQPGFSKTLLGTKLEAKYLCSACRNVLRRPFQAQCGHRYCSFCLASILSSGPQNCAACVHEGIYEEGISILESSSAFPDNAARREVESLPAVCPSDGCTWKGTLKEYESCHEGRCPLMLTECPACKGLVRLGEKERHLEHECPERSLSCRHCRAPCCGADVKAHHEVCPKFPLTCDGCGKKKIPREKFQDHVKTCGKCRVPCRFHAIGCLETVEGEKQQEHEVQWLREHLAMLLSSVLEAKPLLGDQSHAGSELLQRCESLEKKTATFENIVCVLNREVERVAMTAEACSRQHRLDQDKIEALSSKVQQLERSIGLKDLAMADLEQKVLEMEASTYDGVFIWKISDFARKRQEAVAGRIPAIFSPAFYTSRYGYKMCLRIYLNGDGTGRGTHLSLFFVVMKGPNDALLRWPFNQKVTLMLLDQNNREHVIDAFRPDVTSSSFQRPVNDMNIASGCPLFCPVSKMEAKNSYVRDDAIFIKAIVDLTGL
partner: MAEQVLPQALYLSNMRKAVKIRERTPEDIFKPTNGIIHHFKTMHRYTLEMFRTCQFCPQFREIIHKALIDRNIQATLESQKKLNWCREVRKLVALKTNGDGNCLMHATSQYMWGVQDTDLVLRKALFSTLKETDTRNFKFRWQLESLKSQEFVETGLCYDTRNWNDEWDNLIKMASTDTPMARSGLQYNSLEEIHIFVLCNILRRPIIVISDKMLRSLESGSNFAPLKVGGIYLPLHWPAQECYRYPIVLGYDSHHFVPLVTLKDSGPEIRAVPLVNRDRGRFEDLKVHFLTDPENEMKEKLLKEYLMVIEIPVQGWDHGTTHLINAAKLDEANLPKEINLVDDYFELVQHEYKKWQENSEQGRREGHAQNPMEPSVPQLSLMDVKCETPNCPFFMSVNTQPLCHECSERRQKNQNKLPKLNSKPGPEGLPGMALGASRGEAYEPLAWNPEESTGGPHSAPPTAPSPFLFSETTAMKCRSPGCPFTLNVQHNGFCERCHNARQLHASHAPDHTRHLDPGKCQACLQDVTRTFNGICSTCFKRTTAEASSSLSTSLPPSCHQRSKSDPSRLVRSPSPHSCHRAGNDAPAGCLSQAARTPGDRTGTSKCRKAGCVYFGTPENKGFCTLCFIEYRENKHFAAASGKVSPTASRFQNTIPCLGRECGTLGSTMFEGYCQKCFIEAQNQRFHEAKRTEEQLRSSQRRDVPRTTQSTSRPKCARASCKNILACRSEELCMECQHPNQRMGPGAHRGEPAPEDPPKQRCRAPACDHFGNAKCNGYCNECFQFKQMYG

The first test covers variants of B1. As to conditions: with uxt_human UXT.
Turning to R335P, the “effect of a mutation on the interaction” value is given as “with no effect”.

In a further test the parent is B1. The settings on record: with crbn_human CRBN.
On to R335P, for which the “effect of a mutation on the interaction” value is “with no effect”.

In the next test the parent is B1. As to conditions: with gcp4_human TUBGCP4, Q9UGJ1.
gcp4_human TUBGCP4, Q9UGJ1, sequence (Q9UGJ1 whole entry): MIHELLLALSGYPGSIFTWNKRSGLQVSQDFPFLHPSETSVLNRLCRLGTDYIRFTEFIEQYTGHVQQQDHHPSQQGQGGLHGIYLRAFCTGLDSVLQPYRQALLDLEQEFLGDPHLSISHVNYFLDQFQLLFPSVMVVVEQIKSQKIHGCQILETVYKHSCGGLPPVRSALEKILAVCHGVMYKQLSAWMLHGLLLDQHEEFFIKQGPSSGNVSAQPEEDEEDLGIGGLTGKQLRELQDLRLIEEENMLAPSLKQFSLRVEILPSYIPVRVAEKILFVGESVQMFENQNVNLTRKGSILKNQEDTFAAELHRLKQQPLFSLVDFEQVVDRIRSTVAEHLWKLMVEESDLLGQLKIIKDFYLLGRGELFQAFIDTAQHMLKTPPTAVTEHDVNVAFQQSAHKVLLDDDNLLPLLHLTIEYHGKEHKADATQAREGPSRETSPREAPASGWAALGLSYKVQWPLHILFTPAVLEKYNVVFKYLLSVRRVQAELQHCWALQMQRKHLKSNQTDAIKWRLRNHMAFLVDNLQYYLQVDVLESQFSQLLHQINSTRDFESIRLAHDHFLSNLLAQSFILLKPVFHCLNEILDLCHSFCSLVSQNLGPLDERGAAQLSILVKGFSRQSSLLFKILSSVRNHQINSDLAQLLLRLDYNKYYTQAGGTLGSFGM
On to R335P, for which the “effect of a mutation on the interaction” value is recorded as “with no effect”.

A further test covers variants of B2. As to conditions: with 4et_human EIF4ENIF1, Q9NRA8.
For S7F, the “effect of a mutation on the interaction” value is “with no effect”.

As to T297I, the “effect of a mutation on the interaction” value is recorded as “with no effect”.

A further test covers variants of B3. The settings on record: with spg21_human SPG21, Q9NZD8.
Turning to E43D, the “effect of a mutation on the interaction” value is reported as “with no effect”.

Take D183H: the “effect of a mutation on the interaction” value is on record as “with no effect”.

Variants of B4 are the subject of another test. The settings on record: with stx8_human STX8, Q9UNK0.
In the case of R124Q, the “effect of a mutation on the interaction” value was “with no effect”.

Consider R176H, for which the “effect of a mutation on the interaction” value is given as “with no effect”.

Variants of B5 are the subject of the next test. The settings on record: with psa1_human PSMA1, P25786.
psa1_human PSMA1, P25786, sequence (P25786 whole entry): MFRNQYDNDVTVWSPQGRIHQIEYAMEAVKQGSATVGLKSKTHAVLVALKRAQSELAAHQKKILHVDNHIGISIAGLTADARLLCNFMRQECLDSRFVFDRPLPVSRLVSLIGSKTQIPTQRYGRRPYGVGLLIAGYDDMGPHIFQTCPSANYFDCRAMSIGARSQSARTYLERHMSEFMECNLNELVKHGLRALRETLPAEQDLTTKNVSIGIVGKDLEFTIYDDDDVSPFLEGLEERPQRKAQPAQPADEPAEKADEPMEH
Consider R65H, for which the “effect of a mutation on the interaction” value is listed as “with no effect”.

The variants in a further test derive from B6. As to conditions: with ssna1_human SSNA1, O43805.
Regarding Q685K, the “effect of a mutation on the interaction” value is “with no effect”.

As for R556G, the “effect of a mutation on the interaction” value is reported as “with no effect”.

In a further test the parent is B7. The settings on record: with tnap3_human TNFAIP3, P21580.
Regarding A264T, the “effect of a mutation on the interaction” value is “with no effect”.
